Assay results reported in patent US20170306031A1 (NGM BIOPHARMACEUTICALS, published 2017).
Substitutions are numbered along the chain they refer to. Read-outs that look alike come from different tables or passages of the source. Values belong to the binder of their own block, whether it stands above or below them.

Experiments:
[1] = target: T1, human GFRAL expressed on cells (human, UniProt Q6UXV0 20-394); experiment: cell-based or functional assay
T1 sequence: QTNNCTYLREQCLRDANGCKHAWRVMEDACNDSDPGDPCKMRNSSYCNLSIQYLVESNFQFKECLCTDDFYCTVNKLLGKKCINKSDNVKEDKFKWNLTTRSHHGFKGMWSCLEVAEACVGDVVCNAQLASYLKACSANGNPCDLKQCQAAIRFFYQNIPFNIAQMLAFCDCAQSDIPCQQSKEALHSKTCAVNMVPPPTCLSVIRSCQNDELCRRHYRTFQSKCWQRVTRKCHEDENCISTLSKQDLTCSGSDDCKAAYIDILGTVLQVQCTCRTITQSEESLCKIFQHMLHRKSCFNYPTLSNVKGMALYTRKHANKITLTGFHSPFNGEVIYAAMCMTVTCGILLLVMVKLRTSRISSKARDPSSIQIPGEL

GFRα1 = target: T2, GFRα1 (UniProt P56159 25-429, limits assumed); experiment: SPR, GFRα1 on chip surface (FIGS. 13A and 13B)
T2 construct: also called GNFR alpha 1; receptor GFRα1
T2 sequence (looked up): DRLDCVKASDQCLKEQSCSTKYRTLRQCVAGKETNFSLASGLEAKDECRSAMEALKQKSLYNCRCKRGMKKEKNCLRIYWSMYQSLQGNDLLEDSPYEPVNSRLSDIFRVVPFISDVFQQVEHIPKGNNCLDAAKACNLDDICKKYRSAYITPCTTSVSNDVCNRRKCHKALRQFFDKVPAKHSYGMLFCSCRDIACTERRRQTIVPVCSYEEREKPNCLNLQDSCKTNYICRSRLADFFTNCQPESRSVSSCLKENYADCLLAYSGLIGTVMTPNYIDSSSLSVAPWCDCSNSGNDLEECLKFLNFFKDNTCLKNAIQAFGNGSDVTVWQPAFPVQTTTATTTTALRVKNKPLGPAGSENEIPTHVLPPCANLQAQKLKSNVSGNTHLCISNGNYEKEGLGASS

[2] = target: T1, human GFRAL expressed on cells; experiment: cell-based or functional assay; remark: listed apart in the source
[3] = target: T3, human GFRAL (analyte in Biacore assays) (human, UniProt Q6UXV0 19-351, limits assumed); experiment: Biacore SPR, antibody captured, human GFRAL injected
T3 construct: injected in solution over captured antibody; also called hGFRAL
T3 sequence: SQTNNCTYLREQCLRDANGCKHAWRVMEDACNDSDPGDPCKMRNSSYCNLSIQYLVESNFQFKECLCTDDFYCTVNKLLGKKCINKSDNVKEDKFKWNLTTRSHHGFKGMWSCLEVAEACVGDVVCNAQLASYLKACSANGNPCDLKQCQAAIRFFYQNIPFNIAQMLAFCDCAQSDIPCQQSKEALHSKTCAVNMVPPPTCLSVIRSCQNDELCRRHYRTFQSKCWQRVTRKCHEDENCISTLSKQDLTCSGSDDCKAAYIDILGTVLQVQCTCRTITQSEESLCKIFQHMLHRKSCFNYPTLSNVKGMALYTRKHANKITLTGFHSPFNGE
Experimental: Exemplary humanized anti-GFRAL antibodies identified in Example 6 were assayed for their binding affinity to human GFRAL. Binding affinity measurements were made in Biacore based assays. For example, equilibrium dissociation constant (KD) measurements were carried out with purified antibodies to evaluate their binding to human GFRAL. Using methods described in Example II, anti-mouse Fc antibody (Sigma-Aldrich, St. Louis, Mo.) was immobilized on all four flow cells of a CM5 chip using amine coupling reagents (GE Healthcare LifeSciences, Piscataway, N.J.). Purified humanized anti-GFRAL antibodies were captured (˜100 RUs) on flow cells 2, 3 and 4 using flow cell 1 as a reference. This was followed by injection of human GFRAL in PBS-P buffer) at a flow rate of 70 μL/min and the binding kinetics were evaluated at 25° C.

[4] = target: T1, human GFRAL expressed on cells; experiment: cell-based or functional assay; remark: listed apart in the source
[5] = target: T1, human GFRAL expressed on cells; experiment: cell-based or functional assay; remark: listed apart in the source
[6] = target: T4, mouse GFRAL expressed on cells (mouse, UniProt Q6SJE0 20-393); experiment: cell-based or functional assay
T4 sequence: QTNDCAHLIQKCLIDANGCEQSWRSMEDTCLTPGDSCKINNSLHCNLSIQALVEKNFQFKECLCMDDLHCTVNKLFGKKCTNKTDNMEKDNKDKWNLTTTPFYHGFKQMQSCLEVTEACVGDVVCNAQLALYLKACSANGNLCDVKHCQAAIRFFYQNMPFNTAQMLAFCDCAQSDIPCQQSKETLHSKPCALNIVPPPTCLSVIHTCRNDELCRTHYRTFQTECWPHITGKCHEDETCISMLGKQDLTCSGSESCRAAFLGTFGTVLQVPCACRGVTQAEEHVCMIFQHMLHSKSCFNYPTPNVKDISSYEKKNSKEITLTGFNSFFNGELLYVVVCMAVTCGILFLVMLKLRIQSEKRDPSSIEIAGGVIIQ

[7] = target: T3, human GFRAL (analyte in Biacore assays); experiment: Biacore SPR, antibody captured, GFRAL injected
[8] = target: T5, mouse GFRAL (analyte in Biacore assays) (mouse, UniProt Q6SJE0 20-349, limits assumed); experiment: Biacore SPR, antibody captured, GFRAL injected
T5 construct: injected in solution over captured antibody
T5 sequence: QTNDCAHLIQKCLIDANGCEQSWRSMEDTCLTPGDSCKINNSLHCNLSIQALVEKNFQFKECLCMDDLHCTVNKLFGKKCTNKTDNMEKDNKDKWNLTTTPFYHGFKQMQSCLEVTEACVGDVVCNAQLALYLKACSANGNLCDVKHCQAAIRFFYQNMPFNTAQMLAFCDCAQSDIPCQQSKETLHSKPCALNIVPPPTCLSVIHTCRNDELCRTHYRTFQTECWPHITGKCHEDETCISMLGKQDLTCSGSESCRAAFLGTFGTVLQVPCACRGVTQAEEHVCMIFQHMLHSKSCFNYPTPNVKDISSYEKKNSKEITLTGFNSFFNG

[9] = target: T1, human GFRAL expressed on cells; experiment: cell-based or functional assay; remark: listed apart in the source

B1: humanized anti-GFRAL antibody HC-344e/LC-344h (antibody, IgG1, V domains shown)
VH: QVQLVQSGAEVKKPGSSVKVSCKASGYTFTDYGVIWVRQAPGQGLEWMGWINTYTGEPTYADDLKGRVTFTADESTSTAYMELSSLRSEDTAVYYCARRYGPEDIDYWGQGTTVTVSS
VL: DVVLTQSPLSLPVTLGQPASISCRASESVDNYGISFMSWFQQRPGQSPRLLIYAASHQGSGVPDRFSGSGSGTDFTLKISRVEAEDVGVYFCLQSKEVPWTFGGGTKVEIK
notes: humanized 3P10; also called h3P10
- IC50, ELK1-luciferase reporter (hGFRAL/hRET) [1]: 6.95 nM
- binding result (GFRα1): no binding
- IC50, ERK phosphorylation in U2OS hGFRAL/hRET cells [2]: 3.3 nM
- Kd [3]: < 0.01 nM

B3: humanized anti-GFRAL antibody HC-344h/LC-344h (antibody, IgG1, V domains shown)
VH: B1 VH with V2I, E46K
VL: B1 VL
notes: humanized 3P10
- IC50, ELK1-luciferase reporter (hGFRAL/hRET) [1]: 5.7 nM
- IC50, ERK phosphorylation in U2OS hGFRAL/hRET cells [2]: 2.18 nM
- Kd [3]: < 0.01 nM

B4: humanized anti-GFRAL antibody HC-344h/LC-344c (antibody, V domains shown)
VH: B1 VH with V2I, E46K
VL: B1 VL with V2I
notes: humanized 3P10
- IC50, ELK1-luciferase reporter (hGFRAL/hRET) [1]: 29.4 nM
- IC50, ERK phosphorylation in U2OS hGFRAL/hRET cells [2]: 15.1 nM
- Kd [3]: < 0.01 nM

B6: antibody designated 5F12 (antibody, V domains shown)
VH: QVQLKQSGTELVRPGASVKLSCKASGYTFTDYYINWVKQRPGQGLEWIARIYPGNGNTYHNEKFKGKATLTAEKSSSTAYMQLSSLTSEDSAVYFCAREGLYYDYDRYFDYWGQGTALTVSS
VL: NIVLTQSPASLAVSLGQRATISCRASESVDTYGNSFMHWYQQKPGQPPKLLIYLASNLESGVPARFSGSGSRTDFTLTIDPVEADDAATYYCHQNNEDPPAFGGGTKLEIK
notes: mouse hybridoma monoclonal; also called 5F12 Hybridoma
- IC50, ELK1-luciferase reporter (hGFRAL/hRET) [4]: 5.4 nM
- IC50, ELK1-luciferase reporter (hGFRAL/hRET) [5]: 0.834 nM
- IC50, ELK1-luciferase reporter (mGFRAL/mRET) [6]: 6.28 nM
- Kd [7]: < 0.1 nM
- koff [7]: ~1e-05 s⁻¹
- Kd [8]: 2.2 nM
- koff [8]: 0.0009 s⁻¹
- IC50, ERK phosphorylation in U2OS hGFRAL/hRET cells [9]: 0.06 nM
- Kd [3]: 0.038 nM

The next lines start with the values.

- IC50, ELK1-luciferase reporter (hGFRAL/hRET) [1]: 4.63 nM
- IC50, ERK phosphorylation in U2OS hGFRAL/hRET cells [2]: 5.02 nM
- Kd [3]: < 0.01 nM
B2: humanized anti-GFRAL antibody HC-344a/LC-344h (antibody, IgG1, V domains shown)
VH: B1 VH with F70I
VL: B1 VL
notes: humanized 3P10

- IC50, ELK1-luciferase reporter (hGFRAL/hRET) [1]: 7.26 nM
- IC50, ERK phosphorylation in U2OS hGFRAL/hRET cells [2]: 5.13 nM
- Kd [3]: 0.012 nM
B5: humanized anti-GFRAL antibody HC-344a/LC-344c (antibody, IgG1, V domains shown)
VH: B1 VH with F70I
VL: B1 VL with V2I
notes: humanized 3P10

- IC50, ELK1-luciferase reporter (hGFRAL/hRET) [5]: 4.09 nM
- IC50, ELK1-luciferase reporter (mGFRAL/mRET) [6]: 1.03 nM
- Kd [7]: < 0.1 nM
- koff [7]: ~1e-05 s⁻¹
- Kd [8]: < 0.1 nM
- koff [8]: ~1e-05 s⁻¹
- IC50, ELK1-luciferase reporter (hGFRAL/hRET) [1]: 4.02 nM
- IC50, ERK phosphorylation in U2OS hGFRAL/hRET cells [9]: 0.08 nM
- IC50, ERK phosphorylation in U2OS hGFRAL/hRET cells [2]: 5.46 nM
- Kd [3]: < 0.01 nM
B7: antibody designated 3P10 (antibody, V domains shown)
VH: QIQLVQSGPELKKPGETVKISCKASGYTFTDYGVIWVKQAPGKALKWMGWINTYTGEPTYADDLKGRFAFSLETSASSASLQINNLKNEDTATYFCARRYGPEDIDYWGQGTTLTVSS
VL: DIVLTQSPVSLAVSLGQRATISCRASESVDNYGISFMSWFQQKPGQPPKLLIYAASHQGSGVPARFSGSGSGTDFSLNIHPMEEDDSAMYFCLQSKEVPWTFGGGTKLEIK
notes: mouse hybridoma monoclonal; also called 3P10 Hybridoma; m3P10
